Results published in US11266762B2, “Methods and kits for producing a fibrin matrix” (Kuros Biosurgery AG, priority 2018, dated 2022).
Several values for one entry are separate records, joined by “and”; a condition that tells them apart may be missing. Equal entries are not always repeated.

Assays:
fibrin matrix = molecular target: T1, fibrin matrix (Homo sapiens, UniProt P02671+P02675+P02679); test: Retention assay: covalent binding of TGplPTH1-34 to fibrin matrix (unbound peptide extracted, PTH1-34 ELISA); conditions: for % unbound TGplPTH1-34 in fibrin matrix: 1 mg/ml final; for Average % unbound ± SD: both experiments
T1 construct: thrombin on one hand cleaves fibrinogen leading to fibrin polymers; purchased Baxter Healthcare AG (ARTISS®)
T1 sequence (P02671 36-866 limits assumed): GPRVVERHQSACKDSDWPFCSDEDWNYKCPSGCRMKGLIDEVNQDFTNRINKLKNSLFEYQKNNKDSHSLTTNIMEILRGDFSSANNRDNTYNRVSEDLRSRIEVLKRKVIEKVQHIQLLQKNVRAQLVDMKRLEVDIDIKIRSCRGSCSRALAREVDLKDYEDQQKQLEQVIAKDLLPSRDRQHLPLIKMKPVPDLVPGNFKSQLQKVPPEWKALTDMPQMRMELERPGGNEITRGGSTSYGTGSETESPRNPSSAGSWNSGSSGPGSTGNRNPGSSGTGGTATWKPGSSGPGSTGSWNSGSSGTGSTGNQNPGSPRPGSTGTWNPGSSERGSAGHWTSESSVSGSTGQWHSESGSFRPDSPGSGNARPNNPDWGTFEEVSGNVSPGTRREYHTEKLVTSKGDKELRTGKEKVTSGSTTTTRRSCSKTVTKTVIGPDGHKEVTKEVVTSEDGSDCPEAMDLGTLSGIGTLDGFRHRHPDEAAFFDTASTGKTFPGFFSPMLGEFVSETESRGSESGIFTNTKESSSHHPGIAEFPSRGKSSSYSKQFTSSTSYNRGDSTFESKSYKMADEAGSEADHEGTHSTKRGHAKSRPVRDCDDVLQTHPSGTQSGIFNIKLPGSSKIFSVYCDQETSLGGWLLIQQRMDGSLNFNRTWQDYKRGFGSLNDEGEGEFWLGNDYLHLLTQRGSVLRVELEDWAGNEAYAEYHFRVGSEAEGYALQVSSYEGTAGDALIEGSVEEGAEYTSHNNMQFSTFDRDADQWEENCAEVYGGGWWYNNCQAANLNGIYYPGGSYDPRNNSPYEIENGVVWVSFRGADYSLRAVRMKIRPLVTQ
T1 sequence (P02675 45-491 limits assumed): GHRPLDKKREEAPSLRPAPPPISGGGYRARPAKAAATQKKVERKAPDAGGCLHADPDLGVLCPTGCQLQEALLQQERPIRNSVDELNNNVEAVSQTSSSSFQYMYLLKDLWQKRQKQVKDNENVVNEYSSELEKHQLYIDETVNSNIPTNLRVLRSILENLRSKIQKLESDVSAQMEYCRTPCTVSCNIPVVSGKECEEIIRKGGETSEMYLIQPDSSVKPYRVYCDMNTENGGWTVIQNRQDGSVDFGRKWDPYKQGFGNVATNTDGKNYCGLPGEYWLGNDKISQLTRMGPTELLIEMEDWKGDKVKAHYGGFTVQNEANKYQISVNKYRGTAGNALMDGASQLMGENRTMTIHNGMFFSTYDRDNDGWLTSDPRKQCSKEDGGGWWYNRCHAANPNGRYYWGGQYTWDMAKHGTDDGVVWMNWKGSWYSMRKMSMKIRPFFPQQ
T1 sequence (P02679 27-433 limits assumed): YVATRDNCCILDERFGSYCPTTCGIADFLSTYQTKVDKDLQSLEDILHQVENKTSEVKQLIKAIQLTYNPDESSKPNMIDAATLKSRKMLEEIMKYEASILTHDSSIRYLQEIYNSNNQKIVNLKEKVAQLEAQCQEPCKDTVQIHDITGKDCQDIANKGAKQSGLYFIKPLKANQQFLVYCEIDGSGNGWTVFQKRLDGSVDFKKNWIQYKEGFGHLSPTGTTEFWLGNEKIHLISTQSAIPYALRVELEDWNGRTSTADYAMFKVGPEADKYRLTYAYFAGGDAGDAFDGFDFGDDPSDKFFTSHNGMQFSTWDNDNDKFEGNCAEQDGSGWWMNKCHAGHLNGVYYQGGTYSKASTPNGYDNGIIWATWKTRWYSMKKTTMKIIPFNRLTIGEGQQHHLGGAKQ
Experimental: The percentage of covalent TGplPTH1-34 binding to fibrin matrices was determined in fibrin matrices prepared with two different methods using an indirect assay. With this assay, non-covalently bound TGplPTH1-34 that can be washed out of the matrix is determined. In the first method (pre-mixing), the two components of the fibrin sealant, ARTISS® were thawed and TGplPTH1-34 was premixed with the fibrinogen component at a concentration of 2 mg/ml. Immediately after mixing, the two components of the fibrin sealant were frozen again and stored at −20° C. The samples were then thawed, and the two components of the sealant were mixed. The final concentration of TGplPTH1-34 in mixed fibrin sealant was 1 mg/ml.
In the second method, the two fibrin sealant components were directly mixed with TGplPTH1-34 solubilized in water to achieve a final concentration of 1 mg/ml (see FIG. 1A).
To evaluate the amount of TGplPTH1-34 covalently bound to the fibrin matrix with the two methods, samples prepared by either of the two methods were subjected to a retention assay. Aliquots of 50 μl were added to 1.5 ml Eppendorf tubes. The fibrin matrices were then incubated at 37° C. for 1 hour. Unbound TGplPTH1-34 was extracted from the fibrin matrix by addition of 1.5 ml extraction buffer (50 mM Tris pH 9.4, 1M NaCl, 0.1% Tween 20) supplemented with protease Inhibitors (Roche Cat #11836153001 cOmplete™, Mini Protease Inhibitor Co) and incubated under constant shaking. After 3 hours the supernatant was collected and 1.5 ml of fresh extraction buffer was added to the fibrin matrix. This extraction step was repeated after 6, 24, 30 and 48 h. Collected supernatants were stored at −20° C. until further processing.
To determine the amount of unbound TGplPTH1-34, the 5 collected supernatants were thawed and pooled. TGplPTH1-34 in the pool was determined by ELISA with a commercial PTH1-34 ELISA kit (Immutopics, Cat *60-3900) following the manufacturer's recommendation. Two independent experiments (three samples per fibrin matrix and experiment) were performed with both preparation methods and the amount of TGplPTH1-34 not bound to the fibrin matrix was determined.

fibrinogen solution = test: Stability of TGplPTH1-34 over time in fibrinogen solution stored at room temperature (HPLC-UV); format: physicochemical; conditions: for TGplPTH1-34 content Mean ± SD / % loss of TGplPTH1-34: in fibrinogen solution; for TGplPTH1-34 content Mean ± SD: room temperature (20-25° C.); for % loss of TGplPTH1-34: room temperature
Experimental: In order to evaluate the stability of TGplPTH1-34 in the fibrinogen component over time, TGplPTH1-34 was mixed with a fibrinogen solution and stored at room temperature.
TGplPTH1-34 was added to fibrinogen solution at a concentration of 266 μg/ml and incubated at room temperature for up to 34 days. Samples were taken at indicated time points and TGplPTH1-34 concentration was determined by HPLC. Briefly, TGplPTH1-34 was quantified with a HPLC-UV method using a Zorbax Agilent RP18 column (4.6×150 mmm, 5 μm, 300 A) for the separation of related substances. As eluent A: 0.1% TFA, 1% ACN in water and as eluent B: 0.1% TFA in ACN was used. The gradient was 0 min. 26% B; 15 min 38% B; 18 min. 90% B; 22 min 26% B; 24 min 26% B. The injection volume was 20 μl and the flow rate was 1 ml/min. The column temperature was 35° C. A reference standard was used for the calibration curve.
The results from the TGplPTH1-34 stability analysis in fibrinogen stored at room temperature (20-25° C.) for up to 34 days are shown in Table 2.

Substance: TGplPTH1-34: PTH fusion peptide: TG substrate domain, plasmin cleavage site, PTH1-34; NQEQVSPLYKNRSVSEIQLMHNLGKHLNSMERVEWLRKKLQDVHNF (Synthetic fusion protein)
- % unbound TGplPTH1-34 in fibrin matrix (fibrin matrix; First method (pre-mixing with fibrinogen component, refrozen), Experiment 1, samples 1-3): 16.8% and 14.4% and 13.9%
- % unbound TGplPTH1-34 in fibrin matrix (fibrin matrix; First method (pre-mixing with fibrinogen component, refrozen), Experiment 2, samples 1-3): 14.7% and 10.2% and 15.1%
- Average % unbound ± SD (fibrin matrix; First method (pre-mixing)): 14.2 ± 2.2%
- Average % unbound ± SD (fibrin matrix; Second method (direct mixing)): 14.0 ± 1.4%
- % unbound TGplPTH1-34 in fibrin matrix (fibrin matrix; Second method (sealant components directly mixed with TGplPTH1-34 in water), Experiment 1, samples 1-3): 13.9% and 11.3% and 15.4%
- % unbound TGplPTH1-34 in fibrin matrix (fibrin matrix; Second method (sealant components directly mixed with TGplPTH1-34 in water), Experiment 2, samples 1-3): 14.4% and 14.7%
- % of the product degraded (fibrinogen solution; 3-5 days in fibrinogen solution at room temperature (time frame for manufacturing)): 4.3-7.8%
- TGplPTH1-34 content Mean ± SD (fibrinogen solution; day 0, added at 266 μg/ml): 232 ± 0.99 µg/mL
- % loss of TGplPTH1-34 (fibrinogen solution; day 3): −4.3%
- TGplPTH1-34 content Mean ± SD (fibrinogen solution; day 3): 222 ± 0.80 µg/mL
- % loss of TGplPTH1-34 (fibrinogen solution; day 5): −7.8%
- TGplPTH1-34 content Mean ± SD (fibrinogen solution; day 5): 214 ± 1.48 µg/mL
- % loss of TGplPTH1-34 (fibrinogen solution; day 7): −10.3%
- TGplPTH1-34 content Mean ± SD (fibrinogen solution; day 7): 208 ± 1.76 µg/mL
- % loss of TGplPTH1-34 (fibrinogen solution; day 14): −17.2%
- TGplPTH1-34 content Mean ± SD (fibrinogen solution; day 14): 192 ± 2.28 µg/mL
- % loss of TGplPTH1-34 (fibrinogen solution; day 21): −24.1%
- TGplPTH1-34 content Mean ± SD (fibrinogen solution; day 21): 176 ± 1.57 µg/mL
- % loss of TGplPTH1-34 (fibrinogen solution; day 29): −25.9%
- TGplPTH1-34 content Mean ± SD (fibrinogen solution; day 29): 172 ± 2.51 µg/mL
- % loss of TGplPTH1-34 (fibrinogen solution; day 34): −28.0%
- TGplPTH1-34 content Mean ± SD (fibrinogen solution; day 34): 167 ± 1.2 µg/mL
- degradation of the fusion peptide in fibrinogen solution (fibrinogen solution; exposure for more than 5 days at room temperature): substantial degradation
